This is an account of results in patent publication US20200247855A1, “THERAPY AND DIAGNOSTICS” (OXFORD UNIVERSITY INNOVATION LIMITED, priority 2017, published 2020).

One may read the Kd as the equilibrium constant for the complex coming apart.

Where two headings read alike, the source gives them in different places.

The target of one assay is T1, CCL14_HUMAN (Homo sapiens, UniProt Q16627).
T1 sequence (Q16627 20-93): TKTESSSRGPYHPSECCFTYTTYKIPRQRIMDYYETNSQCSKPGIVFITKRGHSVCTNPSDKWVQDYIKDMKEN
Kind of assay: Biolayer interferometry (BLI) binding. The gist of the method:
(§1)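 Analyte: chemokine, screened at 300 nM then as a dose series for binders. Ligand: purified His-tagged tick evasin on Ni-NTA sensors. Kd obtained by fitting association, equilibrium and dissociation traces.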

The next assay concerns the target T2, CCL15_HUMAN (Homo sapiens, UniProt Q16663).
T2 sequence (Q16663 22-113): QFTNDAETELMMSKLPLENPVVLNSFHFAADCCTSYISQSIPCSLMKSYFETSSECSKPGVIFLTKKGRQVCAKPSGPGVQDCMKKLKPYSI
Nature of the assay: Biolayer interferometry (BLI) binding. The gist of the method:
as §1

For a further assay, the target named is T3, CCL16_HUMAN (Homo sapiens, UniProt O15467).
T3 sequence (O15467 24-120): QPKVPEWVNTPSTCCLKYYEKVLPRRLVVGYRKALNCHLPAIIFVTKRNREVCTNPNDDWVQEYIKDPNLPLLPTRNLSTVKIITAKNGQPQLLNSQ
Nature of the assay: Biolayer interferometry (BLI) binding. In a few lines:
as §1
Background: Biolayer interferometry detects binding as a change in optical thickness at a sensor tip.

A further assay concerns the target CCL3L1_HUMAN (Homo sapiens, UniProt P16619). Nature of the assay: Biolayer interferometry (BLI) binding. The gist of the method:
as §1

A further assay concerns the target T4, CCL3_HUMAN (Homo sapiens, UniProt P10147).
T4 sequence (P10147 24-92): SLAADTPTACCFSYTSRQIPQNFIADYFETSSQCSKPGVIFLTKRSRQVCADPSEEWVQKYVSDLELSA
Kind of assay: Biolayer interferometry (BLI) binding. In a few lines: as §1

The target in the next assay is CCL7_HUMAN (Homo sapiens, UniProt P80098). Kind of assay: Biolayer interferometry (BLI) binding. In a few lines: as §1
CCL7_HUMAN, sequence (P80098 24-99): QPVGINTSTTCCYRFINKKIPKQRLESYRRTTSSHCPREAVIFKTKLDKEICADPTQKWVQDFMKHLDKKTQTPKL
The target of assay [1] is T5, CCL8_HUMAN (Homo sapiens, UniProt P80075).
T5 sequence (P80075 24-99): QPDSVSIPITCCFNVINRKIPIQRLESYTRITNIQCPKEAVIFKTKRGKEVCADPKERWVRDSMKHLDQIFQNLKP
Kind of assay: Biolayer interferometry (BLI) binding. In a few lines: as §1

The next assay addresses T6, CCL1_HUMAN (Homo sapiens, UniProt P22362).
T6 sequence (P22362 24-96): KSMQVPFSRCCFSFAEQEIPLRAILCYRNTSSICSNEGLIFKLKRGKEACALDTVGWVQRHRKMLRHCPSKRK
The conditions noted are these: read-out: Kd, CCL1_HUMAN, previously described evasins; data obtained from publications [20-22,32]; cited from earlier work.

Another assay addresses CCL2_HUMAN (Homo sapiens, UniProt P13500). The conditions noted are these: data obtained from publications [20-22,32]; cited from earlier work.
For assay [2], the target named is T5, CCL8_HUMAN. Conditions: read-out: Kd, CCL8_HUMAN, previously described evasins; data obtained from publications [20-22,32]; cited from earlier work.
The next assay deals with T7, CCL22_HUMAN (Homo sapiens, UniProt O00626).
T7 sequence (O00626 25-93): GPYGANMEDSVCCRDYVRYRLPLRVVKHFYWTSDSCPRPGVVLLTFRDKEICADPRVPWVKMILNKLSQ
Conditions: read-out: Kd, CCL22_HUMAN, previously described evasins; data obtained from publications [20-22,32]; cited from earlier work.

CCL3L1_HUMAN, sequence (P16619 24-93): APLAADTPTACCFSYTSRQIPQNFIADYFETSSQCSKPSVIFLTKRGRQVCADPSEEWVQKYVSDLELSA
CCL2_HUMAN, sequence (P13500 24-99): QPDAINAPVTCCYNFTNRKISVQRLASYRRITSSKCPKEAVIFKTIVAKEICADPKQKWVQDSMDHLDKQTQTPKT

B1: P672_RHIPU: tick CKBP, Rhipicephalus pulchellus (protein, listed as Rhipicephalus pulchellus)
chain: VCEVSEQEGVGEDNATEDEDYEDFFKPVTCYFANSTVGPLRPPNCTVVCTNNTAWWNDTKSDGGHCYSEYRPEKRTHSREIYNCTIGVCGNGTCIANHTYADCW
On to B1, for which the Kd with CCL14_HUMAN worked out at 5.5 nM; with CCL15_HUMAN, 32 nM; in the assay with CCL16_HUMAN, 3.3 nM; in the assay with CCL3L1_HUMAN, 2.7 nM; in the assay with CCL3_HUMAN it was 2.6 nM; with CCL7_HUMAN, 16 nM. Moreover, the Kd in the assay with CCL8_HUMAN [1] (read-out: Kd for CCL8) came out at 3.7 nM.

B2: EVASIN4: previously described tick CKBP evasin 4, from Rhipicephalus sanguineus (protein, listed as Rhipicephalus sanguineus)
chain: EVPQMTSSSAPDLEEEDDYTAYAPLTCYFTNSTLGLLAPPNCSVLCNSTTTWFNETSPNNASCLLTVDFLTQDAILQENQPYNCSVGHCDNGTCAGPPRHAQCW
Take B2: the Kd is 0.2 nM with CCL1_HUMAN, 0.25 nM with CCL8_HUMAN [2] and 0.43 nM with CCL22_HUMAN. Also, the “Kd, CCL2_HUMAN, previously described evasins” value with CCL2_HUMAN is recorded as “No Binding”.

B3: P1243_AMBAM: tick CKBP, Amblyomma americanum; AAM-02 stated identical (protein, listed as Amblyomma americanum)
chain: RNHTEDNSTEYYDYEEARCACPARHLNNTNGTVLKLLGCHYFCNGTLCTAPDGYPCYNLTAQQVRTLTTYPNTSCAVGVCMKGTCVKNGTMEQCFKTP
Consider B3, for which the Kd with CCL14_HUMAN worked out at 0.816 nM; with CCL15_HUMAN, 9.61 nM; in the assay with CCL16_HUMAN it was 0.926 nM; in the assay with CCL3L1_HUMAN, 5.05 nM; in the assay with CCL3_HUMAN, 5.3 nM; with CCL7_HUMAN, 8.66 nM. Further, the Kd in the assay with CCL8_HUMAN [1] (read-out: Kd, CCL8_HUMAN) worked out at 21.9 nM.
